Measured values published in paper PMC6241251.

Target: human SK4 (small-conductance Ca2+-activated K+ channel), full-length (human) (UniProt O15554)
Assay: cryo-EM structure

Chain of UniProt O15554 (O15554 whole entry): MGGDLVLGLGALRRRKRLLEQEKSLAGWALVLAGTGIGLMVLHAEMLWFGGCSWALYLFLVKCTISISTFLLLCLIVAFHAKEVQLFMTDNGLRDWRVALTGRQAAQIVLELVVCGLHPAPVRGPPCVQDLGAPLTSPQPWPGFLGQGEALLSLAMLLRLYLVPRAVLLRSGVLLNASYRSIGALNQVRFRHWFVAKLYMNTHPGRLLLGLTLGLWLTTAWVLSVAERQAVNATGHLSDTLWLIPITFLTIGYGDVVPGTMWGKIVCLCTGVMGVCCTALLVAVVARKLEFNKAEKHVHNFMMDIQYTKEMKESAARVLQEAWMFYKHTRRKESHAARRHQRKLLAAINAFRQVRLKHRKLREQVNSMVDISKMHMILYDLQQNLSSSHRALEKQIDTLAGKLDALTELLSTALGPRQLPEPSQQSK

calmodulin (from UniProt P0DP23 1-149) (natural protein; other documents disagree on this pair)
stoichiometry N (CaMs per channel tetramer): 4
